Among the data in article PMC3602594 are insertion rate k (reciprocal of the time required for a distance change from 6.2 to 4.0 nm in single-pair FRET traces), and duration of the close contact values, retold here.

Assay [1] addresses Atto647N-YidC-23C (Escherichia coli) (UniProt P25714).
For assay [2], the target named is Atto647N-YidC-511C (Escherichia coli) (UniProt P25714). In words: FRET or BRET; single-pair FRET by confocal microscopy with alternating laser excitation (514 nm / 635 nm); Atto520-labeled Pf3 coat protein added to Atto647N-labeled YidC reconstituted in DOPC proteoliposomes; 20 mM Tris-HCl pH 7.0, 100 mM NaCl, isopropanol from the Pf3 solution; about 0.2 nM of both labeled proteins; bursts recorded for 420 s.

For assay [3], the target named is Atto647N-YidC-442C (Escherichia coli) (UniProt P25714). The description is as above.
For assay [4], the target named is Atto647N-YidC-23C (Escherichia coli) (UniProt P25714). The assay is described as above.

Where no end group is shown, it is not given here.

For MQSVITDVTGQLTAVC(Atto520‑maleimide)ADITTIGGAIIVLAAVVLGIRWIKAQFF (natural protein) [Atto520-Pf3-16C], in assay [1], the insertion rate k (reciprocal of the time required for a distance change from 6.2 to 4.0 nm in single-pair FRET traces), at 15, 20, 25 and 30°C; k ≈ 250 s^−1 at 15°C turned out to be 500 s⁻¹. For the same molecule, the duration of the close contact in assay [2], in assay [3] and in assay [4] was 10 ms in each case.
